Tests used:
[1] = molecular target: T1, YpTesB (TesB acyl-CoA thioesterase from Y. pestis) (Yersinia pestis, UniProt A0A3N4BCC7); conditions: 100 mM phosphate pH 8.0, 0.1 mM DTNB
[2] = molecular target: T1, YpTesB (TesB acyl-CoA thioesterase from Y. pestis); conditions: 2.2 A; crystals grown with 1 mM octanoyl-CoA, sodium malonate pH 7.0; CoA between two adjacent chains, in two of four sites
[3] = molecular target: TesB acyl-CoA thioesterase from Yersinia pestis (Yersinia pestis); assay: AUC
[4] = molecular target: TesB acyl-CoA thioesterase from Yersinia pestis (Yersinia pestis); assay: SEC
[5] = molecular target: TesB acyl-CoA thioesterase from Yersinia pestis (Yersinia pestis); assay: crystal structure
[6] = molecular target: TesB acyl-CoA thioesterase from Yersinia pestis (Yersinia pestis); assay: small-angle X-ray scattering (SAXS)

Molecule: CCCCCCCCCC(=O)SCCNC(=O)CCNC(=O)[C@H](O)C(C)(C)COP(=O)(O)OP(=O)(O)OC[C@H]1O[C@@H](n2cnc3c(N)ncnc32)[C@H](O)[C@@H]1OP(=O)(O)O [C10, decanoyl-CoA]
- DTNB assay of released thiol, 412 nm [1]: The highest activity was exhibited towards medium-chain acyl-CoAs (C6–C10)

Molecule: CC(C)(COP(=O)(O)OP(=O)(O)OC[C@H]1O[C@@H](n2cnc3c(N)ncnc32)[C@H](O)[C@@H]1OP(=O)(O)O)[C@@H](O)C(=O)NCCC(=O)NCCS [CoA]
- X-ray crystallography [2]: revealing the same quaternary arrangement of domains as the apo form with density for two CoA molecules

Molecule: TesB acyl-CoA thioesterase from Yersinia pestis (enzyme)
- stoichiometry N [3]: 4
- stoichiometry N [4]: 4
- stoichiometry N [5]: 4
- stoichiometry N [6]: 4

From PMC4388271 (Acta Crystallographica Section D: Biological Crystallography, 2015)
